Blank lines part the entries; values can stand above or below the substance they belong to.
What was measured:
[1] = molecular target: soluble sc-DR2/MBP-Cκ fusion molecule (human kappa constant domain) from pDRHK-transfected CHO cells (human); test: sandwich ELISA, L227 capture, L243-HRP probe; cell line CHOA5
[2] = molecular target: soluble sc-DR2/MBP-Cκ fusion molecule (human kappa constant domain) from pDRHK-transfected CHO cells (human); test: sandwich ELISA, anti-human kappa capture, L243-HRP probe; cell line CHOE 12
[3] = molecular target: soluble sc-DR2/MBP-Cκ fusion molecule (human kappa constant domain) from pDRHK-transfected CHO cells (human); test: sandwich ELISA, L227 capture, L243-HRP probe; cell line CHOE 12
[4] = molecular target: soluble sc-DR2/MBP-Cκ fusion molecule (human kappa constant domain) from pDRHK-transfected CHO cells (human); test: sandwich ELISA, anti-human kappa capture, L243-HRP probe; cell line CHOA5
[5] = molecular target: sc-IA^d/OVA-Cκ fusion molecule (sc-IA^d/OVA fused to the mouse kappa constant domain), from pIADK-transfected NSO cells (murine; mouse); test: cell-based or functional assay
[6] = molecular target: soluble sc-IA^d/OVA produced in SF9 insect cells (baculovirus) (murine); test: cell-based or functional assay
[7] = molecular target: sc-IA^d/gD (sc-IA^d fusion protein carrying the gD 246-261 peptide), from insect cells (HSV-1; murine); test: cell-based or functional assay
[8] = molecular target: soluble sc-IA^d/OVA secreted by SCE1-transfected NSO cells (murine); test: IA^d-specific sandwich ELISA, M5/114 capture, biotin-AMS-32.1 probe; undiluted culture supernatant of E11 (SCE1 transfectant)
[9] = molecular target: soluble sc-IA^d/OVA secreted by SCE1-transfected NSO cells (murine); test: IA^d-specific sandwich ELISA, M5/114 capture, biotin-AMS-32.1 probe; undiluted culture supernatant of E10 (SCE1 transfectant)
[10] = molecular target: soluble sc-IA^d/OVA produced in SF9 insect cells (baculovirus) (murine); test: IA^d-specific sandwich ELISA, M5/114 capture, biotin-AMS-32.1 probe; sc-IA^d/OVA from insect cell culture (positive control)

Chain of soluble sc-DR2/MBP-Cκ fusion molecule (human kappa constant domain) from pDRHK-transfected CHO cells (human) (P02686 other isoform, or with tags, fused parts or gaps): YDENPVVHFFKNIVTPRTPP

ELISA Readings (Absorbance) [1]: 0.434 | ELISA Readings (Absorbance) [2]: 1.06 | ELISA Readings (Absorbance) [3]: 0.245 | ELISA Readings (Absorbance) [4]: 1.45
Substance: L243 mAb (ATCC HB-55) (antibody)

Substance: T-cell receptor of the murine T-cell hybridoma DO11.10 (TCR)
DO11.10 IL-2 Released (pg/well) [5]: 500 pg/well | DO11.10 IL-2 Released (pg/well) [6]: 528 pg/well | DO11.10 IL-2 Released (pg/well) [7]: 0 pg/well

Absorbance [8]: 0.96 | Absorbance [9]: 0.781 | Absorbance [10]: 2.44
Substance: anti-IA^d mAb AMS-32.1 (PharMingen) (antibody)

Source: patent publication US7074905
